From publication PMC7174398

What was measured:
[1] = target: mHsp60 S464C variant (human); assay: SEC-MALS; mHsp60 (WT or variant) with mHsp10, pre-incubated with 1 mM ATP, 1 mM BeCl2 and 10 mM NaF for 5 min; Superose-6, ~25 C
[2] = target: mHsp60 S464C variant (human); assay: native gel or EMSA; 15 uM mHsp60 variant pre-incubated 5 min without nucleotide or with ADP in 20 mM Tris-HCl pH 7.7, 20 mM MgCl2, 50 mM KCl; 6% native PAGE
[3] = target: mHsp60 S464R variant (human); assay: SEC-MALS; mHsp60 (WT or variant) with mHsp10, pre-incubated with 1 mM ATP, 1 mM BeCl2 and 10 mM NaF for 5 min; Superose-6, ~25 C
[4] = target: mHsp60 S464R/K109E variant (human); assay: as above

mHsp60 S464C variant (natural protein)
stoichiometry N [1]: 14
stoichiometry N [2]: 7

mHsp60 S464R variant (natural protein)
stoichiometry N [3]: 7

mHsp60 S464R/K109E variant (natural protein)
stoichiometry N [4]: 7
